Measurements taken from the DeepSol protein solubility set.

experiment: soluble on expression in E. coli; label from the status in PepcDB or PDB records

| Sequence | soluble on expression in E. coli |
| --- | --- |
| MGSDKIHHHHHHMVSRRISEIPISKTMELDAKAKALIKKGEDVINLTAGEPDFPTPEPVVEEAVRFLQKGEVKYTDPRGIYELREGIAKRIGERYKKDISPDQVVVTNGAKQALFNAFMALLDPGDEVIVFSPVWVSYIPQIILAGGTVNVVETFMSKNFQPSLEEVEGLLVGKTKAVLINSPNNPTGVVYRREFLEGLVRLAKKRNFYIISDEVYDSLVYTDEFTSILDVSEGFDRIVYINGFSKSHSMTGWRVGYLISSEKVATAVSKIQSHTTSCINTVAQYAALKALEVDNSYMVQTFKERKNFVVERLKKMGVKFVEPEGAFYLFFKVRGDDVKFCERLLEEKKVALVPGSAFLKPGFVRLSFATSIERLTEALDRIEDFLNSR | soluble |
| MGSDKIHHHHHHMVTIQNDRFTATINEVGAELTHLVDQASHRDLIWNNDLWPKHAPVLFPAIGRSNEDSYLIDGQRYEMPQHGFVSGETFMIVDQTPTAVTLSLTANAATRVYYPFYFELQVTFTLVATGLNLTFSVQNHGQQDLSYSLGSHPAFNVPFEAGEAFTDYELVLDPAPTDLQQFEIVKTPNPYRSGKELPVTTDKGVIKLNYPMFDAGLIILKAPNLAHLTLQSTKSKHSISLNLDDFDYVTLWTKEGAQAPFLCLEPFNGLPDVAGDLRELATKEGNHHVAVGQSETMAYTITVD | not soluble |
| MGSDKIHHHHHHMVTIVPINEEERASIINGLKSSVPATKLITLKKIVDLTVLRPESLQYMEMTDKMAIQRIVSGIERIMEYDIDEVLKREASIALEKLKVTLGSKFVQNLFYCQNCNGVVDIGWENCANCGASLAEMEFAETKPCPNCNKHTSENWNNCAHCGFQLIKEEDKIQKCSGCKREVDPTWMVCPYCGTRLKVSKK | not soluble |
| MGSDKIHHHHHHMVVASVVLWGKHVGAVLWNYDKGYATFEFEAGFLKSGLDVAPLTMPLANVSKGEIFQFAQLPKETFHGLPGLLSDALPDRFGNQLIDLWLASQGRDKASMSPVERLCYLGTRGMGALEFEPTVRNEKEPSKGLEIGALVELSKKALSMKASLDSHFSKEDAETFADIIKVGTSAGGARAKAVIAYNEQTGEVRSGQLHSPAGFEHWLIKFDGVTNEQLGDPKGYGRIEYAYYKMAIDADIIMMPSLLLEEGGRAHFMTKRFDRIVNNEKLHMQTLCGLCHFDYNNPEAYAYEQAFQAMRQLRLPYTDAEQLYIRMVFNVVARNQDDHTKNISFLMDKTGNWSLSPAYDVSYAYNPENKWIAKHQLAVNGKRENIMREDLLSVAKQMNIKKPKEIIEKITAVVSNWEGYAQEAGVPKNQITALGKTHLLKM | not soluble |
| MGSDKIHHHHHHMVVKIGLLGFGTVASGVPFLLEENQEKIEKAAHDSIEVAKVLVKDEAEKDRLLAAGHDYHFVTNIDDILADEDIAIVVELMGRIEPAKTFITHALEAGKHIVTANKDLLAVHGSELRALAEEKGLALYYEAAVAGGIPILRTLVNSLAADKVTRILGVLNGTSNFMLTKMVDEGWTYEKALQTAQELGYAESDPTNDVEGIDAAYKAVILSQFAFGMTVDFEHVAHKGISNITPEDVAVAQELGYVIKLVGDIQETTSGIAAEVSPTFLPKNHPLASVNGVMNAVFVESIGIGQSMYYGPGAGQKPTATSVMADIIRIVRRLKDNTIGKAFNEYSRSLQLAAPSDVKSEYYFSIDAPDKNGKMLRLAEIFNSEEISFKQILQQAADGETARLVIVTHEMSKTQLENVTDKLSKETDFTVLNTFKVLGE | not soluble |
| MGSDKIHHHHHHMYEEWKIVKREAPILGNDQLIENIWKMKREDSPYDIISLHKVNLIGGGNDAVLILPGTWSSGEQLVTISWNGVHYTIPDYRKSIVLYLARNGFNVYTIDYRTHYVPPFLKDRQLSFTANWGWSTWISDIKEVVSFIKRDSGQERIYLAGESFGGIAALNYSSLYWKNDIKGLILLDGGPTKHGIRPKFYTPEVNSIEEMEAKGIYVIPSRGGPNNPIWSYALANPDMPSPDPKYKSISDFLMDSLYVTGSANPYDYPYSKKEDMFPILASFDPYWPYRLSLERDLKFDYEGILVPTIAFVSERFGIQIFDSKILPSNSEIILLKGYGHLDVYTGENSEKDVNSVVLKWLSQQR | not soluble |
| MGSDKIHHHHHHMYKVIIIDDEKAAIETLRRDLEVQTDLEIKGTAGNGAKGKKLIMDIHPDLLFLDIELPDIQGIRLLSEIREQVLWDMKVVFYTAYDKYLLQALRESAFDYLLKPYDIEELNLIIERYRKTMASARPLPSFASAVGTLMPGRDLFMISTVTGFRFLRLEEIGYFEYLKDKRLWQVELFNQTKLCLKKNTTAGDIIGYSDAFVQISQSAIININYLAMIKSKQCLLYPPFSDKEDLIISRGFLKELQERFCII | not soluble |
